The data set can be described thus: protease stability score; higher = more stable; yeast display proteolysis, trypsin and chymotrypsin.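 Also: relative to predicted unfolded state with 0 unfolded-like and 1 meaning tenfold more protease.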
As for “REEEKKLEDIVKKLLEAWETGDEDFLIEMADPDTRVEFEAENHHEHRVGWENMIHWTHEVHRHLGVKHLMIDSSTIIGEKVHIDGTMNINGREVKIRIIIEIVDGRVKKIKIIVH”, the protease stability score came out at 1.71. The sequence “REEEKLWEHIFHLFIEDVLTGDEDRLREMLDPNVRLKAEGHDDHGRESMVKFNEELHKEIRFERIHLRRIHIIDGVSFMDVQIDGTVNGKHRSLESEIRIYIVDGRIRMVELRIR” yielded a protease stability score of 1.25.

In the case of “REEEKMFTMILEIIKHSLVTGDEDLTRNLVDPNMRLEINGQEVHGREEILRVLLELRVKEMHIDDVKFQGDKAEIDGTLDIEWNGQEDHLKVEIIFRKINGRWHIESIRLE”, the protease stability score was 1.48. As for “REEEKMMRHIFRLDVILELTGDEEKWKHYADPNVRVIFIFENVHIEHHGRDAWVRLLHHMRIDRIIIHRLRVFENHNQADTFVKGEINGRELDMETHFYVLVINGRRKEVELEVR”, the protease stability score came to 1.46. The sequence “REEEKNLHTQMRLFAHALWTGDEDEIHRNMDPHVRSDIDGRELVGREWMIRLIEELRIRHVHIRHFHLQGDKLHLDTISHVIVNGVEVDMHTRVDVEKVNGRWLITSIRFD” gave a protease stability score of 1.18.

“REEEQHAERFTKLFIEAFETGDWKELSRLLDPHARMEWNGRVHHGMEQIVEVLLKQFHDLGFRIEHVRIHDIRVQGEKIKVDVDIDGIVDGRREHWKVTLIILKVNGRWLTKEIEYR” gave a protease stability score of 1.31. Sequence “REEEREAKEWLERLIRDIITGDEDKMTNLIDPNVRILINGKHIHGWELYFKIWIDHVERFPNMRVDYHVKSITFFNGRIIMYYEERIHINGKEIRVDVHIQALKVNGRWILESVHNE” showed a protease stability score of 1.54.

On to “REEERLTRHFAHRLFHSLMTGDEDELTELADPNARSIVDGRTVHGRETMSRIIHHKVRELGVDHNTIEHIEFQGNYVHVHMRIEVGDKTYTSIIHIEKVDGRWLVRSVNLL”, for which the protease stability score was found to be 0.491. “REEESEWKKFFEDLLRSLVTGDESSLSKMIDPHARLDVDGREFHGREHMAHWIVRTLNEHGITIKIEIKDFRLVGDKVHVDGHEDIEVGDKRHERRLHIILLKFNGRWVIKELKVE” gave a protease stability score of 2.67. Take “REENEMLKRAIKHILRVLETGDFEDLSKMFDPHARLFFNGVLFMGRENVEHHWERERERYKNLRLHFRHVNYHVQGDKVFVEYHVDVTVGDKKWEVHFHFIVIKINGQWYNEDLEIEIR”: the protease stability score was 1.66. In turn, “REIEEDVEKALRLWEKTMFTGDEDRFMELADPHTRVTFNGREVIGMEIWKTLVEELGIDVIKDTRIHDVKVQGNKVHVDSHRHVHFNGKTVEIRTRLIATKFDGRWHIESIRFQ” returned a protease stability score of 0.803. Consider “REIEKSLEESLKMWLENLVTGDERQLSELVDPDAKLEVGDKHHVGMETISHMIRHMRIESIEIKSIRIFDGRAEIHAYVLGNINGQRKDLNEKLHWEKINGRWEVRKILLE”, for which the protease stability score was determined as 2.13. The sequence “REKDDEMDRIVKIFYHVLRTGNEELLDTLIDPDTRIEVDINGVNYISHGREEWKRVIEELLRHMRINSIIIHDIRYQGNKATIDNHADLEFDGVRFEMRSELRIIVVNGRYRSFSRIIR” came in with a protease stability score of 1.13. “REKDDLLHEFTERYMTAIETGDEETLEKLMDPDVKLHVGEYHDHGREDVSEWLRTHLEQWRIERIEIQHVDLQGDKLRVDLIVHARVGDKRIILHTILISRKINGRWHIKFFSMR”: the protease stability score amounted to 1.3. Turning to “RELDEMAERAVEWYFRVLRTGDEHTLSRLLDPNVRVVFDGRTYIGREWYREHEEKLGVDHMRLDVKSVRNINGRIEVDVRVNREVNGQEIRIEMRMTSEKVDGRWEVKTVEEK”, the protease stability score came out at 1.3. In turn, “RELEESSKFFLKLIIEAFLTGDERTNSELADPNVRIHIGEFHYHGREEFSKLMEELVKRVKNATVINDIDHIEVQGEKIKMDGRLILIYNGRIFETRTSLIVVKIDGRWLIESVHVK” registered a protease stability score of 1.48. For the sequence “RELERDSTELIKMWLRHLETGDEDVISELIDPNVKVDINGQDHHGREDATEWAMRVKNMTIIVRHLEFQGEKAFVTTEVRVNGKTVHVIVRSLKVDGRWRLESLEVHSE”, the protease stability score stood at 1.59. Regarding “REQEEFSENAIKLWEHLTKTGDEEKMTKLMDPHARLDVNGQQLVGRELIEKIIREILKRIDHLDHIEFEHIDNQGEKVIIHSRVIFIFNGRKIDTEVHVIMIKINGQWRIESMTEK”, the protease stability score was 1.18.
